Biological target: T1, BSA (bovine, UniProt P02769 25-607)
T1 construct: Control analyte in the BiaCore experiment
Experiment: BiaCore CM5 chip, BMP3 pro-MuIgG2a amine coupled, BSA flowed over

T1 sequence (P02769 25-607 limits assumed): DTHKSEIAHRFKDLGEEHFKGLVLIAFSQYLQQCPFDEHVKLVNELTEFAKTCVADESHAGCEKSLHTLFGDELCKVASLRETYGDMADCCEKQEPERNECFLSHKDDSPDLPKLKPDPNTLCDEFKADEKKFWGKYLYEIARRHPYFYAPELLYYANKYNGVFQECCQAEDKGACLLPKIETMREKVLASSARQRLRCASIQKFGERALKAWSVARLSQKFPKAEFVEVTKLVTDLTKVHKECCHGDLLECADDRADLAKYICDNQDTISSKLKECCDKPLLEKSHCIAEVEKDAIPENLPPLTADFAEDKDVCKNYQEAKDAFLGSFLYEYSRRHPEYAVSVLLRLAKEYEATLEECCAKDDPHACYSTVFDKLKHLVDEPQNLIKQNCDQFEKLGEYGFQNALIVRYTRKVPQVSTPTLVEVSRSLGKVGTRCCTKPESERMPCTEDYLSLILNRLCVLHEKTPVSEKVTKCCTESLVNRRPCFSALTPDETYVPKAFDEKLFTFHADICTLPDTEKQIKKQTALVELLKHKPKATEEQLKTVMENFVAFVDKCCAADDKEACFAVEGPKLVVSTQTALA

binding result: no binding
B1: BMP3A propeptide-Murine IgG2a peptide Fc fusion protein (Fc fusion)
chain: ERPKPPFPELRKAVPGDRTAGGGPDSELQPQDKVSEHMLRLYDRYSTVQAARTPGSLEGGSQPWRPRLLREGNTVRSFRAAAAETLERKGLYIFNLTSLTKSENILSATLYFCIGELGNISLSCPVSGGCSHHAQRKHIQIDLSAWTLKFSRNQSQLLGHLSVDMAKSHRDIMSWLSKDITQFLRKAKENEEFLIGFNITSKGRQLPKRRLPFPEPYILVYANDAAISEPESVVSSLQGHRNFPTGTVPKWDSHIRAALSIERRKKRSTGVLLPLQNNELPGAEYQYKKDEVWEERKPYKTLQAQAPEKSKNKKKQRKGPHRKSQTLQFDEQTLKKARRK
notes: Expressed in HEK293 cells and purified on Protein A; highly glycosylated; also called BMP3 pro-MuIgG2a; BMP3 pro-MuIg2a; not shown: murine IgG2a Fc
